Data published in publication PMC12749308 (Nature Communications, 2025).
Like-named read-outs stand apart in the source and are kept apart here.

What was measured:
[1] = target: the molecule itself; assay: cryo-EM structure
[2] = target: the molecule itself; assay: cryo-EM structure; remark: listed apart in the source
[3] = target: T1, hPLD3 luminal domain H201A/H416A (hPLD3_HA) (Homo sapiens, UniProt Q8IV08 61-490, H201A;H416A); assay: EMSA
T1 sequence: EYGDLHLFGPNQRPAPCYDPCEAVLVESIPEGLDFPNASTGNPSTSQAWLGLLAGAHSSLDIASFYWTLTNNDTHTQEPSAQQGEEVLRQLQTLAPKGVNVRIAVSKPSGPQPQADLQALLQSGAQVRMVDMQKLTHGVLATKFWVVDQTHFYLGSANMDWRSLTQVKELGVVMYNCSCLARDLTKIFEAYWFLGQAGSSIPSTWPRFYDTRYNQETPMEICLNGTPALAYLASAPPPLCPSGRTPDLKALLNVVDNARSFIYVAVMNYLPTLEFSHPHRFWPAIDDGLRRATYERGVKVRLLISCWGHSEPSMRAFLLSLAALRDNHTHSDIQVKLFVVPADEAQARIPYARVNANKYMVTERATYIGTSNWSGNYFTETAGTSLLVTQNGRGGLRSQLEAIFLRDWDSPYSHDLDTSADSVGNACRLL

B1: human PLD3 luminal domain, wild type (domain or fragment, UniProt Q8IV08 61-490, looked up)
chain: EYGDLHLFGPNQRPAPCYDPCEAVLVESIPEGLDFPNASTGNPSTSQAWLGLLAGAHSSLDIASFYWTLTNNDTHTQEPSAQQGEEVLRQLQTLAPKGVNVRIAVSKPSGPQPQADLQALLQSGAQVRMVDMQKLTHGVLHTKFWVVDQTHFYLGSANMDWRSLTQVKELGVVMYNCSCLARDLTKIFEAYWFLGQAGSSIPSTWPRFYDTRYNQETPMEICLNGTPALAYLASAPPPLCPSGRTPDLKALLNVVDNARSFIYVAVMNYLPTLEFSHPHRFWPAIDDGLRRATYERGVKVRLLISCWGHSEPSMRAFLLSLAALRDNHTHSDIQVKLFVVPADEAQARIPYARVNHNKYMVTERATYIGTSNWSGNYFTETAGTSLLVTQNGRGGLRSQLEAIFLRDWDSPYSHDLDTSADSVGNACRLL
modifications: four N-linked glycans observed in the cryo-EM structure (all sites except Asn97)
With B1 the “stoichiometry N” value [1] was 2.

B2: human PLD4 luminal domain, wild type (domain or fragment, UniProt Q96BZ4 91-506, looked up)
chain: RDSCQLVLVESIPQDLPSAAGSPSAQPLGQAWLQLLDTAQESVHVASYYWSLTGPDIGVNDSSSQLGEALLQKLQQLLGRNISLAVATSSPTLARTSTDLQVLAARGAHVRQVPMGRLTRGVLHSKFWVVDGRHIYMGSANMDWRSLTQVKELGAVIYNCSHLAQDLEKTFQTYWVLGVPKAVLPKTWPQNFSSHFNRFQPFHGLFDGVPTTAYFSASPPALCPQGRTRDLEALLAVMGSAQEFIYASVMEYFPTTRFSHPPRYWPVLDNALRAAAFGKGVRVRLLVGCGLNTDPTMFPYLRSLQALSNPAANVSVDVKVFIVPVGNHSNIPFSRVNHSKFMVTEKAAYIGTSNWSEDYFSSTAGVGLVVTQSPGAQPAGATVQEQLRQLFERDWSSRYAVGLDGQAPGQDCVWQG
modifications: six N-linked glycans observed in the cryo-EM structure
B2 was tested, and the “stoichiometry N” value [2] was 4.

ACGTTCCTGATGCTAAGTATGCACTTCATCGTCAAGCAATGCTATGCAT (ssDNA) [Substrate-I (49 nt)]: binds [3].
